From patent publication US20110172153A1 (GENERAL HOSPITAL, published 2011)
Each block holds one binder with its values, some of them ahead of it. Square brackets hold non-standard residues; d marks the D form. Ends that are not written are not given here. hArg = N=C(N)NCCCC[C@H](N)C(=O)O; Aib = CC(C)(N)C(=O)O

What was measured:
[1] = target: T1, rat parathyroid hormone receptor (PTHR) (rat, UniProt P25961 27-591); assay: cell-based or functional assay
T1 sequence: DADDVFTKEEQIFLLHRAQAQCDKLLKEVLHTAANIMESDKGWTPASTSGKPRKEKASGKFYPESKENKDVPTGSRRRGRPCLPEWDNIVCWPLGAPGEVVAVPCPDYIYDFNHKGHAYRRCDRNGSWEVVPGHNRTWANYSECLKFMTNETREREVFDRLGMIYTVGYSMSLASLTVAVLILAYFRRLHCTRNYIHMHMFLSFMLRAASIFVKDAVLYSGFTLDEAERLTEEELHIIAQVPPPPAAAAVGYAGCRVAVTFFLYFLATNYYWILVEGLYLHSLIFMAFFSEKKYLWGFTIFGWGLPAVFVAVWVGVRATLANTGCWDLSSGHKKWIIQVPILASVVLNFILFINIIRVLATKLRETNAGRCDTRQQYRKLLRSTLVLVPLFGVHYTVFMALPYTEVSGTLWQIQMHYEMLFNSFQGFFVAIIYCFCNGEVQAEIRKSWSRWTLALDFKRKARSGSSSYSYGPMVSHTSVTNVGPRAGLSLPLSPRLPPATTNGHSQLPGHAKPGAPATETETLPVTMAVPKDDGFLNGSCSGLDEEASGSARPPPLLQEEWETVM

[2] = target: T2, human parathyroid hormone receptor (PTHR) (human, UniProt Q03431 27-593); assay: competition radioligand binding, human PTH1 receptor R0
T2 construct: Assayed in membranes of HKRK-B7 cells or of transiently transfected COS-7 cells, or on intact HKRK-B7/HKRK-B64/COS-7 cells; RG = co-transfected with negative-dominant Galpha-s; R0 = receptor alone plus GTPgammaS; also called hPTHR; human PTH receptor
T2 sequence: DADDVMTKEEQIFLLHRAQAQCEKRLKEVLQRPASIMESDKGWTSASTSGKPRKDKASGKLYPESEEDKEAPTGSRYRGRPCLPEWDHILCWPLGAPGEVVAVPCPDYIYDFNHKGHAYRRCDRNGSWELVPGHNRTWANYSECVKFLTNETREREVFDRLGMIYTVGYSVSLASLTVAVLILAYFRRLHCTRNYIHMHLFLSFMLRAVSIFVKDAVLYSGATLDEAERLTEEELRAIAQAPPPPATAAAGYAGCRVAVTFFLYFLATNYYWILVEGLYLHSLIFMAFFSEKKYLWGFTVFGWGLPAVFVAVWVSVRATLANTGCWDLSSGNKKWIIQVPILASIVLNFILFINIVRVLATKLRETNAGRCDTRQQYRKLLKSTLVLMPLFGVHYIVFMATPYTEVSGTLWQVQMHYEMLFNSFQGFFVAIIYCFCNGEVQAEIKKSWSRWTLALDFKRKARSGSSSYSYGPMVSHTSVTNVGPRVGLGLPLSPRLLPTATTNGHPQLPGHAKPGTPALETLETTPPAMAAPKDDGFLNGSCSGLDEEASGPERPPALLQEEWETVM
Experimental: (§1) Binding Studies. Binding studies were performed using cell membranes as described (Dean et al., Mol Endocrinol 20(4):931-43 (2006)). […] Reactions contained a total membrane protein concentration of 20 to 100 μg/mL, and a total radioactivity concentration of approximately 150,000 cpm/ml. Unlabeled peptide ligands and/or GTPγS (Sigma-Aldrich Inc. St. Louis, Mo.) were added to the reactions as indicated. At the end of the reaction, bound and free radioligand were separated by vacuum filtration using a 96-well vacuum filter plate and vacuum filter apparatus (Multi-Screen system with Durapore HV, […] filters; Millipore Corp., Milford, Mass.); the air-dried filters were then detached from the plate and counted for gamma radioactivity using a gamma counter.
(§2) To assess the capacities of various unlabeled peptide ligands to bind to the G protein-uncoupled and G protein-coupled PTHR conformations (R⁰ and RG, respectively), membranes were prepared from transiently transfected COS-7 cells and the following assay conditions.

[3] = target: T2, human parathyroid hormone receptor …; assay: cell-based or functional assay
[4] = target: T2, human parathyroid hormone receptor …; assay: competition radioligand binding, human PIR R0
Experimental: as §1, §2

[5] = target: T2, human parathyroid hormone receptor …; assay: competition radioligand binding, hPTHR R0 conformation
Experimental: as §1, §2

[6] = target: T2, human parathyroid hormone receptor …; assay: competition radioligand binding, hPTHR RG conformation
Experimental: as §1, §2

[7] = target: T2, human parathyroid hormone receptor …; assay: competition radioligand binding, human PIR RG
Experimental: as §1, §2

[8] = target: T2, human parathyroid hormone receptor …; assay: screen, binding to human PIR R0 relative to parent PTHrP(1-28)NH; footnote not given
[9] = target: T2, human parathyroid hormone receptor …; assay: screen, binding to human PIR RG relative to parent PTHrP(1-28)NH; footnote not given
[10] = target: T2, human parathyroid hormone receptor …; assay: ratio of R0 IC50 to RG IC50, hPTHR

- acute cAMP in ROS17/2.8 cells, EC50 (FIG. 21A) [1]: 7.6 nM
- cAMP in ROS17/2.8 cells, EC50 [1]: 7.39 nM
B1: hPTH(1-28)NH2 (peptide)
peptide: SVSEIQLMHNLGKHLNSMERVEWLRKKL-NH2

- IC50 [2]: 197 nM
- cAMP in HKRK-B7 cells, EC50 [3]: 1.76 nM
- cAMP in HKRK-B7 cells, Max [3]: 63.8 pm/well
B2: [A1,3,23,Q10,R11]-PTH(1-34)OH (peptide)
peptide: AVAEIQLMHQRGKHLNSMERVEALRKKLQDVHNF-OH
notes: also called [A^1,A^3,A^23,Q^10,R^11]-PTH(1-34)OH; [A1,3,23,Q10,R11]-hPTH(1-34)

- cAMP in HKRK-B7 cells, EC50 [3]: 3.25 nM
- cAMP in HKRK-B7 cells, Max [3]: 65.5 pm/well
B3: Mc-hPTH(1-34)OH (peptide)
peptide: AVAEIQLMHQRAKWLNSMRRVEWLRKKLQDVHNF-OH

- IC50 [4]: 144 nM
- IC50 [5]: 144 nM
- IC50 [6]: 0.05 nM
- IC50 [7]: 0.05 nM
B4: A18,22,L25,K26-PTHrP(1-30)NH (peptide)
peptide: AVSEHQLLHDKGKSIQDARRRAFLLKLIAE-NH2

- human PIR R0 (% parent) [8]: 160 % parent
- human PIR RG (% parent) [9]: 167 % parent
B5: A18,22,26-PTHrP(1-28)NH (peptide)
peptide: AVSEHQLLHDKGKSIQDARRRAFLHALI-NH2

- human PIR R0 (% parent) [8]: 139 % parent
- human PIR RG (% parent) [9]: 172 % parent
B6: A18,N22,K26-PTHrP(1-28)NH (peptide)
peptide: AVSEHQLLHDKGKSIQDARRRNFLHKLI-NH2

- human PIR R0 (% parent) [8]: 15 % parent
- human PIR RG (% parent) [9]: 175 % parent
B7: A18,S22,K26-PTHrP(1-28)NH (peptide)
peptide: AVSEHQLLHDKGKSIQDARRRSFLHKLI-NH2

- human PIR R0 (% parent) [8]: 18.8 % parent
- human PIR RG (% parent) [9]: 116 % parent
B8: E18,W22,A26-PTHrP(1-28)NH (peptide)
peptide: AVSEHQLLHDKGKSIQDERRRWFLHALI-NH2

- human PIR R0 (% parent) [8]: 64.4 % parent
- human PIR RG (% parent) [9]: 152 % parent
B9: E18,L22,K26-PTHrP(1-28)NH (peptide)
peptide: AVSEHQLLHDKGKSIQDERRRLFLHKLI-NH2

- human PIR R0 (% parent) [8]: 126 % parent
- human PIR RG (% parent) [9]: 120 % parent
B10: A18,26,W22-PTHrP(1-28)NH (peptide)
peptide: AVSEHQLLHDKGKSIQDARRRWFLHALI-NH2

- human PIR R0 (% parent) [8]: 120 % parent
- human PIR RG (% parent) [9]: 208 % parent
B11: E18,K22,26-PTHrP(1-28)NH (peptide)
peptide: AVSEHQLLHDKGKSIQDERRRKFLHKLI-NH2

- IC50 [4]: 540 nM
- IC50 [7]: 0.1 nM
B12: A18,S22,L25,K26-PTHrP(1-28)NH (peptide)
peptide: AVSEHQLLHDKGKSIQDARRRSFLLKLI-NH2

- human PIR R0 (% parent) [8]: 136 % parent
- human PIR RG (% parent) [9]: 161 % parent
B13: A18,26,N22-PTHrP(1-28)NH (peptide)
peptide: AVSEHQLLHDKGKSIQDARRRNFLHALI-NH2

- human PIR R0 (% parent) [8]: 84.4 % parent
- human PIR RG (% parent) [9]: 147 % parent
B14: E18,N22,K26-PTHrP(1-28)NH (peptide)
peptide: AVSEHQLLHDKGKSIQDERRRNFLHKLI-NH2

- human PIR R0 (% parent) [8]: 53.7 % parent
- human PIR RG (% parent) [9]: 140 % parent
B15: E18,N22,A26-PTHrP(1-28)NH (peptide)
peptide: AVSEHQLLHDKGKSIQDERRRNFLHALI-NH2

- human PIR R0 (% parent) [8]: 106 % parent
- human PIR RG (% parent) [9]: 192 % parent
B16: E18,K22,A26-PTHrP(1-28)NH (peptide)
peptide: AVSEHQLLHDKGKSIQDERRRKFLHALI-NH2

- human PIR R0 (% parent) [8]: 52.5 % parent
- human PIR RG (% parent) [9]: 125 % parent
B17: E18,L22,A26-PTHrP(1-28)NH (peptide)
peptide: AVSEHQLLHDKGKSIQDERRRLFLHALI-NH2

- IC50 [4]: 2060 nM
- IC50 [7]: 0.11 nM
B18: E18,S22,L25,K26-PTHrP(1-28)NH (peptide)
peptide: AVSEHQLLHDKGKSIQDERRRSFLLKLI-NH2

- IC50 [4]: 1740 nM
- IC50 [5]: 1740 nM
- R0/RG selectivity [10]: 18300
- IC50 [6]: 0.1 nM
- IC50 [7]: 0.1 nM
B19: E18,A22,L25,K26-PTHrP(1-28)NH (peptide)
peptide: AVSEHQLLHDKGKSIQDERRRAFLLKLI-NH2
notes: also called EALK-PTHrP(1-28)

- human PIR R0 (% parent) [8]: 133 % parent
- human PIR RG (% parent) [9]: 148 % parent
B20: A18,26,S22-PTHrP(1-28)NH (peptide)
peptide: AVSEHQLLHDKGKSIQDARRRSFLHALI-NH2

- human PIR R0 (% parent) [8]: 136 % parent
- human PIR RG (% parent) [9]: 115 % parent
B21: A18,W22,K26-PTHrP(1-28)NH (peptide)
peptide: AVSEHQLLHDKGKSIQDARRRWFLHKLI-NH2

- human PIR R0 (% parent) [8]: 133 % parent
- human PIR RG (% parent) [9]: 163 % parent
B22: A18,26,L22-PTHrP(1-28)NH (peptide)
peptide: AVSEHQLLHDKGKSIQDARRRLFLHALI-NH2

- human PIR R0 (% parent) [8]: 160 % parent
- human PIR RG (% parent) [9]: 177 % parent
B23: A18,L22,K26-PTHrP(1-28)NH (peptide)
peptide: AVSEHQLLHDKGKSIQDARRRLFLHKLI-NH2

- human PIR R0 (% parent) [8]: 31.9 % parent
- human PIR RG (% parent) [9]: 132 % parent
B24: E18,S22,A26-PTHrP(1-28)NH (peptide)
peptide: AVSEHQLLHDKGKSIQDERRRSFLHALI-NH2

- human PIR R0 (% parent) [8]: 46.6 % parent
- human PIR RG (% parent) [9]: 149 % parent
B25: E18,W22,K26-PTHrP(1-28)NH (peptide)
peptide: AVSEHQLLHDKGKSIQDERRRWFLHKLI-NH2

- IP3 formation, fold less potent than M-PTH(1-28) [1]: 100 fold
B26: Trp^1-M-PTH(1-28) (peptide)
peptide: WV[Aib]EIQLMHQ[hArg]AKWLNSMRRVEWLRKKL

- acute cAMP in ROS17/2.8 cells, EC50 (FIG. 21A) [1]: 0.33 nM
- cAMP in ROS17/2.8 cells, EC50 [1]: 0.37 nM
B27: [Ala^1,12,Aib^3,Gln^10,homoarginine^11,Trp^14,Arg^19]human(h)PTH(1-28)NH2 (peptide)
peptide: AV[Aib]EIQLMHQ[hArg]AKWLNSMRRVEWLRKKL-NH2
modifications: N-terminus assumed
SMILES: CC[C@H](C)[C@H](NC(=O)[C@H](CCC(=O)O)NC(=O)C(C)(C)NC(=O)[C@@H](NC(=O)[C@H](C)N)C(C)C)C(=O)N[C@@H](CCC(N)=O)C(=O)N[C@@H](CC(C)C)C(=O)N[C@@H](CCSC)C(=O)N[C@@H](Cc1c[nH]cn1)C(=O)N[C@@H](CCC(N)=O)C(=O)N[C@@H](CCCCNC(=N)N)C(=O)N[C@@H](C)C(=O)N[C@@H](CCCCN)C(=O)N[C@@H](Cc1c[nH]c2ccccc12)C(=O)N[C@@H](CC(C)C)C(=O)N[C@@H](CC(N)=O)C(=O)N[C@@H](CO)C(=O)N[C@@H](CCSC)C(=O)N[C@@H](CCCNC(=N)N)C(=O)N[C@@H](CCCNC(=N)N)C(=O)N[C@H](C(=O)N[C@@H](CCC(=O)O)C(=O)N[C@@H](Cc1c[nH]c2ccccc12)C(=O)N[C@@H](CC(C)C)C(=O)N[C@@H](CCCNC(=N)N)C(=O)N[C@@H](CCCCN)C(=O)N[C@@H](CCCCN)C(=O)N[C@@H](CC(C)C)C(N)=O)C(C)C
